Experimental data published in US20210008175A1, “BACTERIOPHAGE LYSIN AND ANTIBIOTIC COMBINATIONS AGAINST GRAM POSITIVE BACTERIA” (priority 2012, published 2021).

Assays:
[1] = test system: Streptococcus agalactiae, Group B; test: MIC, broth microdilution (CLSI M07-A9); assay type: cell-based; details: 51 tested
[2] = test system: Staphylococcus lugdiensis; test: MIC, broth microdilution (CLSI M07-A9); assay type: cell-based; details: 10 tested
Enterococcus faecalis = test: MIC, broth microdilution (CLSI M07-A9); assay type: cell-based; details: 17 tested
Bacillus cereus = test: MIC, broth microdilution (CLSI M07-A9); assay type: cell-based; details: 10 tested
Proteus mirabilis = test: MIC, sensitivity of human gut bacteria; assay type: cell-based; details: N 2
MRSA strain 269 (MW2) = test: Combination MIC study in the presence of 15% surfactant (Survanta); assay type: cell-based, Staphylococcus aureus; details: PlySs2 plus daptomycin

B1: PlySs2: bacteriophage lysin derived from Streptococcus suis, amino acid sequence of FIG. 29 (SEQ ID NO: 1), N-terminal CHAP and C-terminal SH3 domain (protein, listed as Streptococcus suis)
chain: MTTVNEALNNVRAQVGSGVSVGNGECYALASWYERMISPDATVGLGAGVGWVSGAIGDTISAKNIGSSYNWQANGWTVSTSGPFKAGQIVTLGATPGNPYGHVVIVEAVDGDRLTILEQNYGGKRYPVRNYYSAASYRQQVVHYITPPGTVAQSAPNLAGSRSYRETGTMTVTVDALNVRRAPNTSGEIVAVYKRGESFDYDTVIIDVNGYVWVSYIGGSGKRNYVATGATKDGKRFGNAWGTFK
MIC 50% [1]: 8 µg/mL | MIC 90% [1]: 16 µg/mL | MIC Range [1]: 1 to 64 µg/mL | MIC 50% [2]: 8 µg/mL | MIC 90% [2]: 8 µg/mL | MIC Range [2]: 8 µg/mL | MIC 50% (Enterococcus faecalis): >512 µg/mL | MIC 90% (Enterococcus faecalis): >512 µg/mL | MIC 50% (Bacillus cereus): >512 µg/mL | MIC 90% (Bacillus cereus): >512 µg/mL | MIC Range (Bacillus cereus): >512 µg/mL | CF-301 MIC (Proteus mirabilis): >512 µg/mL | effective concentration in combination as fraction of MIC (MRSA strain 269 (MW2)): ⅛ | most dilute concentration in combination that still inhibits growth (MRSA strain 269 (MW2)): 2 µg/mL
